This note sets out measurements from patent publication US20260108607A1 (BEIJING DCTY BIOTECH, published 2026).

Where a chain is given by its changes, count along the chain named.

Assay [1] deals with T1, EGFR (wild type) expressed on target cells (UniProt P00533 25-1210, limits assumed).
T1 construct: whole, on cells; also called F98npEGFR; U87MG-EGFR
Nature of the assay: flow cytometry of the subclone supernatant on F98npEGFR cells (Geom mean).

In assay [2] the target is T2, EGFRvIII overexpressed on target cells (UniProt P00533 25-1210).
T2 construct: whole, on cells; Same protein on two cell lines: F98npEGFRvIII for flow cytometry, U87MG-EGFRvIII for the killing assays; also called F98npEGFRvIII; U87MG-EGFRvIII
Description: flow cytometry of the subclone supernatant on F98npEGFRvIII cells (Geom mean).

The target of assay [3] is T3, EGFRvIII target antigen (SPR ligand) (UniProt P00533 25-645, limits assumed).
T3 construct: also called EGFRvIII antigen
Description: SPR; EGFRvIII as ligand, antibody as analyte.

Assay [4] concerns the target T3, EGFRvIII target antigen (SPR ligand). Description: SPR.
Assay [5] has the same target. Nature of the assay: SPR; antibody as analyte.

B1: 20-2-13 (antibody, V domains shown)
VH: QVQLQQPGAELVKPGASVKLSCKASGYSFTRYWMHWVKQRPGQGLEWIGEINPSNGRANYNEKFMSKATLTVDKSSSTAYMQLSSLTSEDSAVYYCARGREITTGFAYWGQGTLVTVSA
VL: SIVMTQTPKFLLVSAGDRVTITCKASQSVSNDVVWYQQKPGQSPKLLIYYASNRYTGVPDRFTGSGYGTDFTFTITTVQAEDLAVYFCQQDYSSPWTFGGGTKLEIK
notes: also called 90F6C1
As to B1, the binding result in assay [1] is recorded as “no binding”; in assay [2], “binds”.

B2: 20-2-55 (antibody, V domains shown)
VH: QIQLQQSGPELVKPGASVKISCKASGYSFTDYYINWVKQKPGQGLEWIGWIYPGSGNTKYNEKFKGKATLTVDTSSSTAYMQLNSLTSEDTAVYFCARSSRCDFWGQGTTLTVSS
VL: DIQMTQSASSFSVSLGDSVTITCKASEDIYNRLAWYQQKPGNTPRLLISGATSLETGVPSRFSGSGSGKDYTLSITSLQTEDVATYYCQQYWSSPLTFGSGTKLELK
notes: also called 136C11E7
With B2, the binding result is “no binding” in assay [1] and “binds” in assay [2].

B3: murine antibody 20-2-4 (clone 88A3C8) (antibody, V domains shown)
VH: EVQLQQSGAELVRPGALVKLSCKASGFNIKDYYMHWVKQRPEQGLEWIGWIDPENGNTIYDPKFQGKASITADTSSNTAYLQLSSLTSEDTAVYYCARGWFAYWGQGTLVTVSA
VL: DILMTQSPSSLAMSVGQKVTMSCKSSQSLLNSSNQKNHLAWYQQKPGQSPKLLVYFASTRASGVPDRFIGSGSGTDFTLTISSVQAEDLADYFCQQHYSTPLTFGAGTKLELK
notes: Murine monoclonal antibody purified from the subclone supernatant; also called clone #4
Molecule B3 yielded a koff in assay [3] of 0.00864 s⁻¹. Moreover, the binding result in assay [1] was “no binding”.

B4: murine antibody 20-2-28 (clone 84C3G8H7) (antibody, V domains shown)
VH: B3 VH
VL: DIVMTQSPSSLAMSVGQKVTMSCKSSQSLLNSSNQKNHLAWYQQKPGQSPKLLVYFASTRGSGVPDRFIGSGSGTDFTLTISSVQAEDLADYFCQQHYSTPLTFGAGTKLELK
notes: Murine monoclonal antibody purified from the subclone supernatant; also called clone #28
Consider B4, for which the dissociation rate constant (koff) in assay [3] is 0.0165 s⁻¹. The binding result in assay [1] is “no binding”.

B5: murine antibody 20-2-1 (clone 83F7B2) (antibody, V domains shown)
VH: QIQLVQSGPELKKPGETVKISCKASGYTFTDFSMHWVKQAPGKGLKWMGWINTETGEPSYADDFKGRFAFSLETSASTAYLQINNLKNEDTATYFCANYGYDVRGDYWGQGTTLTVSS
VL: EIVLTQSPTTMAASPGEKITITCSASSSISSNYLHWYQQKPGFSPKLLIYGTSNLASGVPARFSGSGSGTSYSLTIGTMEAEDVATYYCHQGSSIPLTFGAGTKLELK
notes: Murine monoclonal antibody purified from the subclone supernatant
B5: in assay [3], the Kd was 23.7 nM, the koff turned out to be 0.00119 s⁻¹ and the kon worked out at 50100 M⁻¹ s⁻¹. Moreover, in assay [1], the binding result is recorded as “no binding”.

B6: 20-2-7 (antibody, V domains shown)
VH: B5 VH with F32Y, M34I, S59T, A97S
VL: B5 VL with K18N, S28G, K46E, G51S, S94D, K104R
notes: also called 89C2A11
As to B6, the binding result in assay [1] was “no binding”; in assay [2], “binds”.

B7: humanized antibody 40-2-H11 (98G2E9-VH5 + VL7) (scFv)
scFv: EVQLLESGGGLVQPGGSLKLSCAASGFTFSGYAMSWVRQTPGKGLEWVATITSGGSYTYYPDSVKGRFTISRDNSKNTLYLQMNSLRAEDTAMYYCARKDYGNYWFAYWGQGTLVTVSSGGGGSGGGGSGGGGSGGGGSDVVMTQSPLSLPVTLGDQASISCRSSQSLVHSDGNTYLHWYLQKPGQSPKLLIYKVSNRFSGVPDRFSGSGSGTDFTLKISRVEAEDVGVYFCSQTTQVPWTFGGGTKLEIK
notes: the format in the SPR assay is not clearly stated
With B7, the “fold reduction of affinity against the murine antibody from clone #40-2” value (“fold reduction of affinity” for short) in assay [4] is about 2 fold. Also, in assay [5], the dissociation constant Kd worked out at 138 nM, the dissociation rate constant (koff) stood at 0.00343 s⁻¹ and the kon stood at 24800 M⁻¹ s⁻¹.

B8: humanized antibody 40-2-H10 (98G2E9-VH5 + VL6) (scFv)
scFv: B7 scFv with D156Q
notes: as for B7
For the molecule B8, the “fold reduction of affinity” value in assay [4] was about 2 fold. In assay [5], this molecule showed a Kd of 135 nM, a koff of 0.00345 s⁻¹ and a kon of 25600 M⁻¹ s⁻¹.

B9: humanized antibody 40-2-H12 (98G2E9-VH6 + VL5) (scFv)
scFv: B7 scFv with G42E, S75A, Q157P, K183R, K189R
notes: as for B7
Consider B9, for which, in assay [4], the “fold reduction of affinity” value is about 2 fold. In assay [5], this molecule gave a Kd of 102 nM, an off-rate (koff) of 0.00266 s⁻¹ and a kon of 26000 M⁻¹ s⁻¹.

B10: humanized antibody 40-2-H9 (98G2E9-VH5 + VL5) (scFv)
scFv: B7 scFv with Q157P, K183R, K189R
notes: as for B7
In the case of B10, in assay [4], the “fold reduction of affinity” value was about 2 fold. For the same molecule, in assay [5], binding was characterised by a dissociation constant (Kd) of 112 nM, the koff came to 0.00307 s⁻¹ and the kon was 27400 M⁻¹ s⁻¹.

B11: humanized antibody 40-2-H13 (98G2E9-VH6 + VL6) (scFv)
scFv: B7 scFv with G42E, S75A, D156Q
notes: as for B7
On to B11, for which the “fold reduction of affinity” value in assay [4] was about 2 fold. Also, in assay [5], the dissociation constant (Kd) was 102 nM, the koff came out at 0.00301 s⁻¹ and the on-rate constant (kon) amounted to 29400 M⁻¹ s⁻¹.
